The values below come from US7067277B1, “Chimeric G proteins and uses thereof” (H. Lundbeck A/S, priority 1999, dated 2006).

Assay in all cases: Calcium mobilization (FLIPR, Fluo-3) in transfected COS-7 cells
Format in all cases: cell-based

Test [1] has as its target h D5 (Homo sapiens, UniProt P21918). The note with it: h D5 + chimera in COS-7; agonist DA, max 100 μM. As to the method:
(§1) COS-7 cells were cultured in 225 cm^2 flasks in Dulbecco's Modified Eagle Medium (DMEM) with supplements (10% bovine calf serum, 4 mM glutamine, 100 units/ml penicillin and 100 μg/ml streptomycin) at 37° C., 5% CO2. Stock plates of COS-7 cells were trypsinized and split 1:6 every 3–4 days.
(§2) GPCR and chimeric G protein cDNAs were transiently transfected into COS-7 cells in 150 cm^2 flasks by the DEAE-dextran method (Cullen, 1987), using a total of 20 μg of DNA/˜7×10^6 cells. For evaluating the function of a single chimeric G protein, the standard cDNA transfection ratio was 1:1 (10 μg GPCR cDNA and 10 μg chimeric G protein cDNA). For evaluating the function of a mixture of chimeric G proteins, the standard cDNA transfection ratio was 8:1:1 (16 μg GPCR cDNA, 2 μg Gαq/z cDNA, 2 μg Gαq/s cDNA).
(§3) Twenty four hours after transient transfection, COS-7 cells were seeded into 96-well black wall microtiter plates coated with poly-D-lysine for assay the following day. Just prior to assay, culture medium was aspirated and cells were dye-loaded with 4 μM Fluo-3/0.01% pluronic acid in assay buffer composed of Hank's Balanced Salt Solution (138 mM NaCl, 5 mM KCl, 1.3 mM CaCl2, 0.5 mM MgCl2, 0.4 mM MgSO4, 0.3 mM KH2PO4, 0.3 mM Na2HPO4, 5.6 mM glucose) plus 20 mM HEPES (pH 7.4), 0.1% BSA and 2.5 mM probenicid (100 μl/well) for 1 hour in 5% CO2 at 37° C. After excess dye was discarded, cells were washed in assay buffer and layered with a final volume equal to 100 μl/well. Basal fluorescence was monitored in a fluorometric imaging plate reader (FLIPR™, Molecular Devices) with an excitation wavelength of 488 nm and an emission range of 500 to 560 nm. Laser excitation energy was adjusted so that basal fluorescence readings were approximately 10,000 relative fluorescent units. Cells were stimulated with agonists diluted in assay buffer (50 μl), and relative fluorescent units were measured at defined intervals (exposure=0.4 sec) over a 3 min period at room temperature. Maximum change in fluorescence was calculated for each well. Concentration-response curves derived from the maximum change in fluorescence were analyzed by nonlinear regression (Hill equation).

The target of test [2] is h 5HT7 (Homo sapiens, UniProt P34969). The note with it: h 5HT7 + chimera in COS-7; agonist 5HT, max 100 μM. As to the method:
as §1, §2, §3

Test [3] concerns the target h β2 adr (Homo sapiens, UniProt P07550). The note with it: h β2 adr + chimera in COS-7; agonist NE, max 100 μM. As to the method: as §1, §2, §3
The target of test [4] is h GLP-1 (Homo sapiens, UniProt P43220). The note with it: h GLP-1 + chimera in COS-7; agonist GLP-1, max 10 μM. As to the method: as §1, §2, §3
h GLP-1, sequence (P43220 24-463): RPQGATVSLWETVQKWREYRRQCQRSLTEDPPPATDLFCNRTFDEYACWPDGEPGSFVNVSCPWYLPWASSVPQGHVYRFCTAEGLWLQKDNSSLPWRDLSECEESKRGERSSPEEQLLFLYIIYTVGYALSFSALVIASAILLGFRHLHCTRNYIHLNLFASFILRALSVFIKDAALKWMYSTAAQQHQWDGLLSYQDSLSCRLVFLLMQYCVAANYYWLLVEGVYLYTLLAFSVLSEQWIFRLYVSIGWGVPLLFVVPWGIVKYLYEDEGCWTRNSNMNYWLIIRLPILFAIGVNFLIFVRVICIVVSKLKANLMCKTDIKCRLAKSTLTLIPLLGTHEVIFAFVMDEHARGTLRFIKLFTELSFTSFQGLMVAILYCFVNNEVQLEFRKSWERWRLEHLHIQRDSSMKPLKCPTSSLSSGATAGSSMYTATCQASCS
In test [5] the target is h 5HT6 (Homo sapiens, UniProt P50406). The note with it: h 5HT6 + chimera in COS-7; agonist 5HT, max 100 μM. As to the method:
as §1, §2, §3

The target of test [6] is h 5HT4 (Homo sapiens, UniProt Q13639). As to conditions: h 5HT4 + chimera in COS-7; agonist 5HT, max 100 μM. As to the method: as §1, §2, §3
h 5HT4, sequence (Q13639 whole entry): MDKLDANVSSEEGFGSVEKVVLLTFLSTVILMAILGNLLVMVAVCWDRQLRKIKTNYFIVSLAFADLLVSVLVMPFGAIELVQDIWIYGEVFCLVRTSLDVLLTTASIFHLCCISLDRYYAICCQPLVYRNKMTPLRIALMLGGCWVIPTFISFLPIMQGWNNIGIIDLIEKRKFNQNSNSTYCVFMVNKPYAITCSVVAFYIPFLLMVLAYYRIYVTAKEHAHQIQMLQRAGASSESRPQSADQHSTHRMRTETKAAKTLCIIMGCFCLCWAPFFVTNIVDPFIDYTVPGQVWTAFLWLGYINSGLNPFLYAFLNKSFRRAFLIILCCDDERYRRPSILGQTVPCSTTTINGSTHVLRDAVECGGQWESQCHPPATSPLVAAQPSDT
Test [7] deals with T1, h D1 (Homo sapiens, UniProt P21728).
T1 construct: expressed in transfected cells; host or cells: COS-7
T1 sequence (P21728 whole entry): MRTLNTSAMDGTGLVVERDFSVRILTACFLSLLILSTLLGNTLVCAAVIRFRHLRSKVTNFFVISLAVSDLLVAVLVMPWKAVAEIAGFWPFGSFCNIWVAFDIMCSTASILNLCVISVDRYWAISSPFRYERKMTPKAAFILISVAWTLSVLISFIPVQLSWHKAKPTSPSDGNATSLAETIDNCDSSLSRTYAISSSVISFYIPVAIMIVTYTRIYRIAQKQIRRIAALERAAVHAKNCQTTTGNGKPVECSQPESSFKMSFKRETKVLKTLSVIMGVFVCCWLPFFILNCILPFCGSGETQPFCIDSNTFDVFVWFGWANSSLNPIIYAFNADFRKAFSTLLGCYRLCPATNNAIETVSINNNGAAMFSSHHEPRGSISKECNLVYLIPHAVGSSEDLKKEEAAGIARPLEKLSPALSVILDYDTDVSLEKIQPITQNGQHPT
As to the method: as §1
For evaluating the function of a single chimeric G protein, the standard cDNA transfection ratio was 1:1 (10 μg GPCR cDNA and 10 μg chimeric G protein cDNA). For evaluating the function of a mixture of chimeric G proteins, the standard cDNA transfection ratio was 8:1:1 (16 μg GPCR cDNA, 2 μg Gαq/z cDNA, 2 μg Gαq/s cDNA).
as §3, with “Just prior to assay, culture medium was aspirated and cells were dye-loaded with 4 μM Fluo-3/0.01% pluronic acid in assay buffer composed of Hank's Balanced Salt Solution (138 mM NaCl, 5 mM KCl, 1.3 mM CaCl2, 0.5 mM MgCl2, 0.4 mM MgSO4, 0.3 mM KH2PO4, 0.3 mM Na2HPO4, 5.6 mM glucose) plus 20 mM HEPES (pH 7.4), 0.1% BSA and 2.5 mM probenicid (100 μl/well) for 1 hour in 5% CO2 at 37° C.” left out

The target of test [8] is T2, r GALR3 (Rattus norvegicus, UniProt O88626).
T2 sequence (O88626 1-370): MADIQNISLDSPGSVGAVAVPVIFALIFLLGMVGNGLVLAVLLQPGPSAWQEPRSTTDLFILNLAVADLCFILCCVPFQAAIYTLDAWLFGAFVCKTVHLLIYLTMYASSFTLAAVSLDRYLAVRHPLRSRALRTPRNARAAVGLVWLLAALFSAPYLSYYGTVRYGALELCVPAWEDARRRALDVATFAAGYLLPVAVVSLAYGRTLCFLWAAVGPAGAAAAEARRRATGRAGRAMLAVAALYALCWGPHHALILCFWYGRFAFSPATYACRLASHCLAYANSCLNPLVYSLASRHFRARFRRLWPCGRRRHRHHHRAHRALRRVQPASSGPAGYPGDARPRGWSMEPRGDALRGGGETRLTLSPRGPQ
As to conditions: COS-7 cells transfected with the rat GALR3 receptor; n=4. As to the method:
as §1, §2, §3

The mark [9] stands for this setting: h D1 + chimera in COS-7, agonist DA, max 100 μM.

h D5, sequence (P21918 whole entry): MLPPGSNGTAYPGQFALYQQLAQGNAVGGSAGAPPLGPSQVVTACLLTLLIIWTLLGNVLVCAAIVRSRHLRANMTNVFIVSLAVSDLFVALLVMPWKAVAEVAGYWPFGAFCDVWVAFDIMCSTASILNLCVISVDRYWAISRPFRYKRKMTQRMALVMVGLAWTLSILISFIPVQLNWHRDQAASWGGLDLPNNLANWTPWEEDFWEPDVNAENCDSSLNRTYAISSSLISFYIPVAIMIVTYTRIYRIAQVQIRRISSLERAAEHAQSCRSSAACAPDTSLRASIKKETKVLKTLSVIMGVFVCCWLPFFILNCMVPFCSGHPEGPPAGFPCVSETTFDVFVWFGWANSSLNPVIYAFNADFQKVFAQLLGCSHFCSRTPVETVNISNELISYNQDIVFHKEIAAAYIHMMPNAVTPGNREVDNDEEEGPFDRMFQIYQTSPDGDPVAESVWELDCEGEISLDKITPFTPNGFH
h 5HT7, sequence (P34969 whole entry): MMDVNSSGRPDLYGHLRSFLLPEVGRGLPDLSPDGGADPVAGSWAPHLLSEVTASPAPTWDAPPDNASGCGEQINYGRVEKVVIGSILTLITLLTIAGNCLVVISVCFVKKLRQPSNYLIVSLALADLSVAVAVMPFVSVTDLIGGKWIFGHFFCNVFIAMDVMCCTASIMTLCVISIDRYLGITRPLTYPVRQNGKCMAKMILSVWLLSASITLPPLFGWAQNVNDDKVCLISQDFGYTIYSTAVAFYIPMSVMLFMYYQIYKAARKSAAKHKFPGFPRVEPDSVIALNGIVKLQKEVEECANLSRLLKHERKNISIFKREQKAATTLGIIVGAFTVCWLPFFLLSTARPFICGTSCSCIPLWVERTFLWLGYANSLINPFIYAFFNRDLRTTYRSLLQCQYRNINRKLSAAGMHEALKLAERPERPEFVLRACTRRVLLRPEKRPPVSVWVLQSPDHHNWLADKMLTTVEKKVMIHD
h 5HT6, sequence (P50406 whole entry): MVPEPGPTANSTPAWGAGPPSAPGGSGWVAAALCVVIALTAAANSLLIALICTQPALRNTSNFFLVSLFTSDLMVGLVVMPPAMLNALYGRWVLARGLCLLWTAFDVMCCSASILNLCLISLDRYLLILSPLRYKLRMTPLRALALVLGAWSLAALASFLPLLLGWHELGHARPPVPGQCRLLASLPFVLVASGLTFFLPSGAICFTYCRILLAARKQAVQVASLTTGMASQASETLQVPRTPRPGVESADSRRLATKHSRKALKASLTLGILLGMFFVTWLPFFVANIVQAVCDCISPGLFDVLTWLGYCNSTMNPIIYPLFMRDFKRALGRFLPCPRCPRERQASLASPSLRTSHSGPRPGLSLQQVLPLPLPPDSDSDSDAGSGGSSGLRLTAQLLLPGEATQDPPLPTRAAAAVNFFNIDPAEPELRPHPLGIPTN

B1: hGαq/s9: human Gαq with 9 C-terminal amino acids of Gαs (protein)
chain: MTLESIMACCLSEEAKEARRINDEIERQLRRDKRDARRELKLLLLGTGESGKSTFIKQMRIIHGSGYSDEDKRGFTKLVYQNIFTAMQAMIRAMDTLKIPYKYEHNKAHAQLVREVDVEKVSAFENPYVDAIKSLWNDPGIQECYDRRREYQLSDSTKYYLNDLDRVADPSYLPTQQDVLRVRVPTTGIIEYPFDLQSVIFRMVDVGGQRSERRKWIHCFENVTSIMFLVALSEYDQVLVESDNENRMEESKALFRTIITYPWFQNSSVILFLNKKDLLEEKIMYSHLVDYFPEYDGPQRDAQAAREFILKMFVDLNPDSDKIIYSHFTCATDTENIRFVFAAVKDTILQMHLRQYELL
As to B1, the “MAXIMAL SIGNAL (FLUORESCENCE UNITS)” value amounted to 745 fluorescence units in test [1]; 0 fluorescence units in test [2]; 1439 fluorescence units in test [3]; 4198 fluorescence units in test [4]; 999 fluorescence units in test [5]; 2309 fluorescence units in test [6]. The “MAXIMAL SIGNAL (FLUORESCENCE UNITS)” value in test [7] (setting [9]) worked out at 5692 fluorescence units.

B2: human Gαq/i3(5): human Gαq with five C-terminal amino acids of Gαi3 (protein)
chain: MTLESIMACCLSEEAKEARRINDEIERQLRRDKRDARRELKLLLLGTGESGKSTFIKQMRIIHGSGYSDEDKRGFTKLVYQNIFTAMQAMIRAMDTLKIPYKYEHNKAHAQLVREVDVEKVSAFENPYVDAIKSLWNDPGIQECYDRRREYQLSDSTKYYLNDLDRVADPSYLPTQQDVLRVRVPTTGIIEYPFDLQSVIFRMVDVGGQRSERRKWIHCFENVTSIMFLVALSEYDQVLVESDNENRMEESKALFRTIITYPWFQNSSVILFLNKKDLLEEKIMYSHLVDYFPEYDGPQRDAQAAREFILKMFVDLNPDSDKIIYSHFTCATDTENIRFVFAAVKDTILQLNLKECGLY
On to B2, for which the “maximum signal produced by porcine galanin” value in test [8] is on record as 2084 relative fluorescent units.

B3: hGαq/s5: human Gαq with 5 C-terminal amino acids of Gαs (protein)
chain: MTLESIMACCLSEEAKEARRINDEIERQLRRDKRDARRELKLLLLGTGESGKSTFIKQMRIIHGSGYSDEDKRGFTKLVYQNIFTAMQAMIRAMDTLKIPYKYEHNKAHAQLVREVDVEKVSAFENPYVDAIKSLWNDPGIQECYDRRREYQLSDSTKYYLNDLDRVADPSYLPTQQDVLRVRVPTTGIIEYPFDLQSVIFRMVDVGGQRSERRKWIHCFENVTSIMFLVALSEYDQVLVESDNENRMEESKALFRTIITYPWFQNSSVILFLNKKDLLEEKIMYSHLVDYFPEYDGPQRDAQAAREFILKMFVDLNPDSDKIIYSHFTCATDTENIRFVFAAVKDTILQLNLKQYELL
For the molecule B3, the “MAXIMAL SIGNAL (FLUORESCENCE UNITS)” value in test [1] stood at 0 fluorescence units; in test [2] it was 0 fluorescence units; in test [3] it was 43 fluorescence units; in test [4], 189 fluorescence units; in test [5], 98 fluorescence units; in test [6] it was 1709 fluorescence units.

B4: dGαq/z5: D. melanogaster Gαq chimera containing the five C-terminal amino acids of human Gαz (SEQ ID NO: 41) (protein)
chain: MECCLSEEAKEQKRINQEIEKQLRRDKRDARRELKLLLLGTGESGKSTFIKQMRIIHGSGYSDEDKRGYIKLVFQNIFMAMQSMIKAMDMLKISYGQGEHSELADLVMSIDYETVTTFEDPYLNAIKTLWDDAGIQECYDRRREYQLTDSAKYYLKDLDRVAQPAYLPTEQDILRVRVPTTGIIEYPFDLEEIRFRMVDVGGQRSERRKWIHCFENVTSIIFLVALSEYDQILFESDNENRMEESKALFRTIITYPWFQNSSVILFLNKKDLLEEKIMYSHLVDYFPEYDGPQRDAITAREFILRMFVDLNPDSEKIIYSHFTCATDTENIRFVFAAVKDTILQSNLKYIGLC
modifications: Drosophila melanogaster
As to B4, the “MAXIMAL SIGNAL (FLUORESCENCE UNITS)” value in test [7] (human D1 receptors in COS-7, 10 μg chimera cDNA and 10 μg receptor cDNA, 100 μM dopamine, Table 9 parallel comparison, mean of two experiments) was determined as 2149 fluorescence units.

B5: cGαq/s21: C. elegans Gαq with C-terminal Gαs tail of 21 amino acids (SEQ ID NO: 4) (protein)
chain: MACCLSEEAREQKRINQEIEKQLQRDKRNARRELKLLLLGTGESGKSTFIKQMRIIHGQGYSEEDKRAHIRLVYQNVFMAIQSMIRAMDTLDIKFGNESEELQEKAAVVREVDFESVTSFEEPYVSYIKELWEDSGIQECYDRRREYQLTDSAKYYLSDLRRLAVPDYLPTEQDILRVRVPTTGIIEYPFDLEQIIFRMVDVGGQRSERRKWIHCFENVTSIMFLVALSEYDQVLVECDNENRMEESKALFRTIITYPWFTNSSVILFLNKKDLLEEKILYSHLADYFPEYDGPPRDPIAAREFILKMFVDLNPDADKIIYSHFTCATDTENIRRVFNDCRDIIQRMHLRQYELL
modifications: C. elegans
In the case of B5, the “MAXIMAL SIGNAL (FLUORESCENCE UNITS)” value in test [1] was determined as 3385 fluorescence units; in test [2] it was 206 fluorescence units; in test [3], 3513 fluorescence units; in test [4] it was 3120 fluorescence units; in test [5], 1009 fluorescence units; in test [6], 1731 fluorescence units. Moreover, the “MAXIMAL SIGNAL (FLUORESCENCE UNITS)” value in test [7] (setting [9]) is reported as 9433 fluorescence units.

B6: C. elegans Gαq/i3(5): C. elegans Gαq with five C-terminal amino acids of Gαi3 (SEQ ID NO: 5) (protein)
chain: MACCLSEEAREQKRINQEIEKQLQRDKRNARRELKLLLLGTGESGKSTFIKQMRIIHGQGYSEEDKRAHIRLVYQNVFMAIQSMIRAMDTLDIKFGNESEELQEKAAVVREVDFESVTSFEEPYVSYIKELWEDSGIQECYDRRREYQLTDSAKYYLSDLRRLAVPDYLPTEQDILRVRVPTTGIIEYPFDLEQIIFRMVDVGGQRSERRKWIHCFENVTSIMFLVALSEYDQVLVECDNENRMEESKALFRTIITYPWFTNSSVILFLNKKDLLEEKILYSHLADYFPEYDGPPRDPIAAREFILKMFVDLNPDADKIIYSHFTCATDTENIRFVFAAVKDTILQHNLKECGLY
modifications: C. elegans
Regarding B6, the “maximum signal produced by porcine galanin” value in test [8] was 2564 relative fluorescent units.
